From PMC6546911 (Nature Communications, 2019) come the findings set out here.

The assay has as its target T1, Fen1, budding yeast, wild-type (budding yeast, UniProt P26793 1-382).
T1 construct: Fen1 (flap endonuclease), budding yeast; source: purified
T1 sequence (looked up): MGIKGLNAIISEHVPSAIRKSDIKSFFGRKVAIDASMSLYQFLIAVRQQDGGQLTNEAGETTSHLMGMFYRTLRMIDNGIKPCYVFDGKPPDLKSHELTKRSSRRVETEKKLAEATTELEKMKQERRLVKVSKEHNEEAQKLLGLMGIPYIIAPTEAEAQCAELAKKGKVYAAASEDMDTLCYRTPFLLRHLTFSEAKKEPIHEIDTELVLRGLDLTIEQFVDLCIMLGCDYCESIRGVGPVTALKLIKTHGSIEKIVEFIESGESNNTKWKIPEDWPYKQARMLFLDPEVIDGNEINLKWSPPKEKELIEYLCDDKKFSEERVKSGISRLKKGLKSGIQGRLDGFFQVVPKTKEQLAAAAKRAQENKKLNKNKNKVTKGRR
Briefly: pull-down; purified wild-type or mutant Fen1 mixed with PCNA; Fen1 affinity-purified on anti-FLAG beads; co-isolated PCNA by immunoblot. Conditions: both partners purified. In general terms: In western blotting, separated proteins are transferred to a membrane and probed.

B1: Yeast PCNA (Pol30p) (natural protein, budding yeast, UniProt P15873 1-258, looked up)
chain: MLEAKFEEASLFKRIIDGFKDCVQLVNFQCKEDGIIAQAVDDSRVLLVSLEIGVEAFQEYRCDHPVTLGMDLTSLSKILRCGNNTDTLTLIADNTPDSIILLFEDTKKDRIAEYSLKLMDIDADFLKIEELQYDSTLSLPSSEFSKIVRDLSQLSDSINIMITKETIKFVADGDIGSGSVIIKPFVDMEHPETSIKLEMDQPVDLTFGAKYLLDIIKGSSLSDRVGIRLSSEAPALFQFDLKSGFLQFFLAPKFNDEE
notes: PCNA (Pol30p), budding yeast; source: E. coli BL21 (DE3), purified
For B1, the binding result is on record as “binds”.
